Measurements: article PMC10168641

Target: NcCAR reductase (R) domain, NcCAR^Δ1–649 (Neurospora crassa)
Assay: SAXS; R-domain in solution; best fit of the experimental data as a mixture of monomer and dimer

percent dimer in solution: 69%
percent monomer in solution: 31%
stoichiometry N: 2
Substance: NcCAR reductase (R) domain, NcCAR^Δ1–649 (domain or fragment)
